Results from patent US9370316B2, “MRI estimation of contrast agent concentration using a neural network approach” (HENRY FORD HEALTH SYSTEM, priority 2007, dated 2016).

Test: MRI (TOMROP) after injection of Gd-BSA in 9 L rat model of cerebral gliosarcoma
Assay type: in vivo, Fisher 344 rats
Settings: rats with 9 L cerebral tumor
Excerpt: Given a “gold-standard” map of CA concentration, an ANN is trainable to directly estimate CA concentration from MRI image sets in which the time-varying behavior of the images depends, albeit nonlinearly, on CA concentration. Some of our studies using TOMROP (“T One by Multiple Read Out Pulses”) image sets as inputs in a set of tubular gel phantoms are supportive. In accordance with some embodiments, without limitation, an ANN for estimating CA concentration in the brain tissue of 9 male Fisher rats, using as inputs TOMROP signal changes after injection of Gd-BSA in a 9 L rat model of cerebral gliosarcoma (Ewing et al. 2006), was designed, trained, optimized, and tested. The MRI experiment was followed by quantitative autoradiography (“QAR”) using radioiodinated serum albumin (“RISA”), thus essentially replicating the MRI as to its timing, procedures, and indicator. The autoradiogram of the QAR procedure served as the training set.
Animal Studies: As part of our studies to compare MRI estimates of transfer constant to QAR estimates (results not included here), nine animals (Fisher 344 rats) with 9 L tumor (Ewing et al. 2006) were studied. Mean tumor age was 14.6±0.7 days (range 14 to 16 days) for all animals. […]

Question: With “Gadolinium-labeled Bovine Serum Albumin [Gd-BSA]” as the substance, how does the “Extravasation of Gd-BSA” value read?
Answer: occurred within the tumors and at tumor borders in all animals
